± gives the standard deviation of the averaged measurements.
System: ATP
Assay: switch fluorescence ratio, 500 uM ATP over buffer (Cy3 cluster intensity, sum of 5 cycles each) (fold (ratio)); higher = stronger signal-on switching upon ATP binding; sequences stand for … in TCGTCGGCAGCGTCAGATGTGTATAAGAGACAGTTTTTTTTTTTTTTTTTTTTTTTTT…TC
Details: aptamer strand: ATP DNA aptamer (quencher-CACCTGGGGGAGTATTGCGGAGGAAGG + anchor), 100 nM annealed; ATP concentration: 500 uM
Summary of the method: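 Switching-strand clusters labelled with Cy3 on a modified Illumina MiSeq flow-cell were annealed to 100 nM quencher-labelled ATP aptamer, imaged in selection buffer, and re-imaged after 15 min with 500 uM ATP at 22 °C. This was done over five cycles with NaOH stripping and re-annealing in between. The fluorescence ratio is summed target-cycle over summed buffer-cycle Cy3 intensity per cluster, averaged per switch-domain sequence, excluding clusters outside 100-1000 RFU.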
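Also: ATP exposure 15 min at 22 °C before imaging.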

| Sequence | switch fluorescence ratio |
| --- | --- |
| GGCTGGCTGA | 0.987 ± 0.045 |
| GGCTGGGATT | 0.964 ± 0.02 |
| GGCTGGGGT | 1.02 ± 0.034 |
| GGCTGTGGCG | 0.9761 ± 0.0015 |
| GGCTGTGTTA | 0.9958 ± 0.0024 |
| GGCTGTTTTT | 0.962 ± 0.034 |
| GGCTTAAGCA | 0.988 ± 0.025 |
| GGCTTAGGGC | 1.02 ± 0.027 |
| GGCTTAGTTG | 0.982 ± 0.0024 |
| GGCTTATTGG | 0.969 ± 0.016 |
| GGCTTCTTGT | 1.01 ± 0.009 |
| GGCTTTTGGA | 0.982 ± 0.014 |
| GGCTTTTTTC | 0.993 ± 0.021 |
| GGGAAAAAAC | 1.013 ± 0.0064 |
| GGGAAAAAGT | 0.985 ± 0.027 |
| GGGAAAAGGC | 1.02 ± 0.035 |
| GGGAAAATA | 0.969 ± 0.018 |
| GGGAAAATAG | 0.99 ± 0.012 |
| GGGAAAGATT | 1.005 ± 0.01 |
| GGGAAAGCGT | 1.03 ± 0.035 |
| GGGAAAGGAC | 1.03 ± 0.032 |
| GGGAAATAGG | 1.01 ± 0.023 |
| GGGAAATCGT | 1.02 ± 0.012 |
| GGGAACCGGA | 1.03 ± 0.17 |
| GGGAAGACTT | 1.02 ± 0.087 |

| Sequence | switch fluorescence ratio |
| --- | --- |
| GGGAAGAGGC | 1.01 ± 0.038 |
| GGGAAGGTAT | 0.992 ± 0.017 |
| GGGAAGGTTA | 0.993 ± 0.017 |
| GGGAATAGAG | 0.99 ± 0.035 |
| GGGAATGATC | 1.01 ± 0.034 |
| GGGAATGTAG | 1.01 ± 0.018 |
| GGGAATTCTG | 0.985 ± 0.023 |
| GGGAATTGGT | 0.979 ± 0.02 |
| GGGACAGCAT | 0.996 ± 0.029 |
| GGGACAGCGT | 1.03 ± 0.025 |
| GGGACAGGTA | 1.02 ± 0.022 |
| GGGACATGGG | 0.972 ± 0.041 |
| GGGACCGAAT | 1.004 ± 0.0056 |
| GGGACCGGTT | 0.99 ± 0.03 |
| GGGACCTAAG | 1 ± 0.024 |
| GGGACGGCTC | 0.993 ± 0.049 |
| GGGACGGGC | 0.933 ± 0.078 |
| GGGACGTTAG | 1.09 ± 0.034 |
| GGGACTAGAG | 0.9744 ± 0.0061 |
| GGGACTAGTT | 0.959 ± 0.046 |
| GGGAGAAATT | 1.02 ± 0.061 |
| GGGAGAAGCG | 0.982 ± 0.014 |
| GGGAGAATTT | 1.29 ± 0.43 |
| GGGAGAGGCG | 0.984 ± 0.013 |
| GGGAGAGTTG | 0.993 ± 0.023 |

| Sequence | switch fluorescence ratio |
| --- | --- |
| GGGAGATTGT | 0.999 ± 0.026 |
| GGGAGCATTG | 1.02 ± 0.037 |
| GGGAGCGCGG | 0.994 ± 0.013 |
| GGGAGCTCTG | 1 ± 0.014 |
| GGGAGGAAAA | 1.02 ± 0.016 |
| GGGAGGAAAG | 0.991 ± 0.017 |
| GGGAGGAGTG | 0.98 ± 0.029 |
| GGGAGGATGT | 0.997 ± 0.022 |
| GGGAGGGACT | 1.03 ± 0.051 |
| GGGAGGGGCC | 1.01 ± 0.026 |
| GGGAGGGGCG | 1 ± 0.023 |
| GGGAGGGGCT | 1.02 ± 0.068 |
| GGGAGGGGGG | 0.994 ± 0.032 |
| GGGAGGGTCT | 0.975 ± 0.016 |
| GGGAGGTAAT | 1 ± 0.056 |
| GGGAGGTATA | 0.969 ± 0.012 |
| GGGAGGTCAT | 0.9731 ± 0.0065 |
| GGGAGGTGTT | 1.037 ± 0.009 |
| GGGAGTAGAC | 1.02 ± 0.045 |
| GGGAGTAGTT | 1.01 ± 0.025 |
| GGGAGTATTT | 1 ± 0.034 |
| GGGAGTCCCA | 0.9973 ± 0.0078 |
| GGGAGTGGCC | 1.01 ± 0.032 |
| GGGAGTTCGG | 0.9597 ± 0.0092 |
| GGGAGTTGGA | 1.02 ± 0.024 |

| Sequence | switch fluorescence ratio |
| --- | --- |
| GGGATAGAAG | 0.971 ± 0.019 |
| GGGATATTAG | 0.994 ± 0.034 |
| GGGATATTTT | 0.977 ± 0.018 |
| GGGATCATGT | 0.98 ± 0.014 |
| GGGATCCAGG | 1.23 ± 0.087 |
| GGGATGAGTT | 0.98 ± 0.041 |
| GGGATGCTCT | 1.01 ± 0.017 |
| GGGATGGGAA | 1.02 ± 0.022 |
| GGGATGGGGT | 0.988 ± 0.029 |
| GGGATGGGTC | 0.985 ± 0.02 |
| GGGATGTGCT | 0.957 ± 0.012 |
| GGGATGTGTT | 0.9635 ± 0.0069 |
| GGGATTAGTC | 1.05 ± 0.088 |
| GGGATTCGTC | 0.994 ± 0.02 |
| GGGATTGGCA | 0.9798 ± 0.0092 |
| GGGATTGTTT | 0.965 ± 0.021 |
| GGGATTTGGG | 0.9745 ± 0.0088 |
| GGGATTTGTG | 0.972 ± 0.01 |
| GGGCAACGAC | 1.07 ± 0.0093 |
| GGGCAACTTT | 0.997 ± 0.049 |
| GGGCAAGAAT | 0.997 ± 0.017 |
| GGGCAAGGGG | 1.02 ± 0.028 |
| GGGCAAGTGG | 0.959 ± 0.014 |
| GGGCAATTAG | 1.15 ± 0.014 |
| GGGCAATTGC | 1.01 ± 0.059 |
